Assay results reported in patent US20250051414A1.

Target: IL-2Rβ/γ Fc heterodimer (UniProt P14784)
Test: BLI (Octet RED384), biotinylated monomeric IL-2/Fc on streptavidin sensors, 1:1 kinetic fit

UniProt P14784, sequence (P14784 other isoform, or with tags, fused parts or gaps, chain 1 of 2): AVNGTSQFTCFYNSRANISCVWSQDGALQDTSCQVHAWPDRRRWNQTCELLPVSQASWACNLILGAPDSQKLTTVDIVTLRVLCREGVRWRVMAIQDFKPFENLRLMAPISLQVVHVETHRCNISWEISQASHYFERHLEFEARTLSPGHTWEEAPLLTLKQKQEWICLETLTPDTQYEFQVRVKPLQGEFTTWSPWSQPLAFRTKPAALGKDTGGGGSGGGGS
UniProt P14784, sequence (P31785 other isoform, or with tags, fused parts or gaps, chain 2 of 2, further chain): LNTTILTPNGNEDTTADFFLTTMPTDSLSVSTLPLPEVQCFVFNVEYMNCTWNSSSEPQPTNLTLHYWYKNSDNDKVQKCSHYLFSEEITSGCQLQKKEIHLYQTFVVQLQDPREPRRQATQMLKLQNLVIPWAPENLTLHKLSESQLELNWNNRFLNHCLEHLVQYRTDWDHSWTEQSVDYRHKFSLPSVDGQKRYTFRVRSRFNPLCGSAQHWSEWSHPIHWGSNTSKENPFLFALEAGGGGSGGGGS

Row | Kd | Substance
1 | 2.81 nM | F42Q N-Term (Fc fusion)
2 | 24 nM | N88D C-term (Fc fusion)
3 | 22.4 nM | H16N N-term (Fc fusion)
4 | 3.04 nM | WT C-term (Fc fusion)
5 | 7.56 nM | V91K C-term (Fc fusion)
6 | 5.3 nM | WT N-term (Fc fusion)
7 | 3.99 nM | R38Q N-term (Fc fusion)

Target: IL2-Ra ectodomain with C-terminal 6xHis tag (UniProt P01589)
Test: BLI (Octet RED384), biotinylated monomeric IL-2/Fc on streptavidin sensors, equilibrium binding

UniProt P01589, sequence (P01589 other isoform, or with tags, fused parts or gaps limits assumed): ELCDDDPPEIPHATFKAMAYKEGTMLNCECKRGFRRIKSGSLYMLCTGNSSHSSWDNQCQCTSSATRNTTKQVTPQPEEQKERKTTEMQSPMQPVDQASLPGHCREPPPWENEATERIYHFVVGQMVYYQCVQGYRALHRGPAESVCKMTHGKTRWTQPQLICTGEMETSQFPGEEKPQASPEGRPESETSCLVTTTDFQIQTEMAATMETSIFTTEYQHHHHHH

Row | Kd | Substance
8 | 9.48 nM | F42Q N-Term (Fc fusion)
9 | 1.01 nM | N88D C-term (Fc fusion)
10 | 0.43 nM | H16N N-term (Fc fusion)
11 | 0.54 nM | WT C-term (Fc fusion)
12 | 0.69 nM | V91K C-term (Fc fusion)
13 | 0.19 nM | WT N-term (Fc fusion)
14 | 0.71 nM | R38Q N-term (Fc fusion)
